Data as given in the Immune Epitope Database (IEDB).

Key:
Assay in all cases: IEDB peptide-MHC binding, purified MHC/competitive/radioactivity; filed as Kd, often an IC50 or EC50 that approximates it; ≥ and ≤ were set here for values at or beyond the usual limits of such assays
HLA-A*03:01 = target: HLA-A*03:01
HLA-A*11:01 = target: HLA-A*11:01
HLA-A*31:01 = target: HLA-A*31:01
HLA-A*33:01 = target: HLA-A*33:01
HLA-A*68:01 = target: HLA-A*68:01
[1] = source organism: Vaccinia virus WR
[2] = source organism: SARS coronavirus Tor2
[3] = source organism: Dengue virus 2 Jamaica/1409/1983
[4] = source organism: Dengue virus 4 Dominica/814669/1981
[5] = source organism: Dengue virus 3 Singapore/8120/1995
[6] = source organism: Dengue virus 3 Martinique/1243/1999
[7] = source organism: Dengue virus 1 Brazil/97-11/1997
[8] = source organism: Dengue virus 4 Philippines/H241/1956
[9] = source organism: Lassa virus Josiah
[10] = source organism: Mammarenavirus guanaritoense

AATIQTPTK gave a Kd (HLA-A*03:01; [1]) of 4120 nM, a Kd (HLA-A*11:01; [1]) of 9.51 nM and a Kd (HLA-A*31:01; [1]) of 137 nM. For the same sequence, the Kd (HLA-A*33:01; [1]) was 1260 nM and the Kd (HLA-A*68:01; [1]) was 1670 nM.

AAYFVGYLK showed a Kd (HLA-A*03:01; [2]) of 3.9 nM, a Kd (HLA-A*11:01; [2]) of 3.19 nM and a Kd (HLA-A*31:01; [2]) of 178 nM. For the same sequence, the Kd (HLA-A*33:01; [2]) was 5550 nM and the Kd (HLA-A*68:01; [2]) was 3.19 nM.

AIFKLTYQNK gave a Kd (HLA-A*03:01; [3]) of 41.4 nM and a Kd (HLA-A*11:01; [3]) of 57.5 nM.

In the case of AIITPVVFY, the Kd (HLA-A*03:01; [1]) is reported as 409 nM, the Kd (HLA-A*11:01; [1]) is reported as 0.362 nM and the Kd (HLA-A*31:01; [1]) is reported as at least 10000 nM. The Kd (HLA-A*33:01; [1]) was at least 45500 nM and the Kd (HLA-A*68:01; [1]) was 1470 nM.

Work on AIITPVVFYR yielded a Kd (HLA-A*03:01; [1]) of 3700 nM, a Kd (HLA-A*11:01; [1]) of 11.3 nM and a Kd (HLA-A*31:01; [1]) of 11.6 nM. It also gave a Kd (HLA-A*33:01; [1]) of 311 nM and a Kd (HLA-A*68:01; [1]) of 1.72 nM.

With AIKILIGFRK the Kd (HLA-A*03:01; [4]) was 215 nM and the Kd (HLA-A*11:01; [4]) was 432 nM.

In the case of AISDYDYYR, the Kd (HLA-A*03:01; [2]) is reported as 86.5 nM, the Kd (HLA-A*11:01; [2]) is reported as 65 nM and the Kd (HLA-A*31:01; [2]) is reported as 26 nM. The Kd (HLA-A*33:01; [2]) was 490 nM and the Kd (HLA-A*68:01; [2]) was 118 nM.

With ALTPPVSDLK the Kd (HLA-A*03:01; [4]) was 86.9 nM.

For ASLKNTISK, the Kd (HLA-A*03:01; [1]) was 6.45 nM, the Kd (HLA-A*11:01; [1]) was 5.21 nM and the Kd (HLA-A*31:01; [1]) was 1800 nM. It also gave a Kd (HLA-A*33:01; [1]) of at least 77700 nM and a Kd (HLA-A*68:01; [1]) of 3750 nM.

Sequence ASTTENAAY has a Kd (HLA-A*03:01; [1]) of 2170 nM, a Kd (HLA-A*11:01; [1]) of 307 nM and a Kd (HLA-A*31:01; [1]) of at least 71400 nM. It also gave a Kd (HLA-A*33:01; [1]) of 3880 nM and a Kd (HLA-A*68:01; [1]) of 2420 nM.

In the case of ATLAFHLTSR, the Kd (HLA-A*31:01; [5]) is reported as 2.69 nM and the Kd (HLA-A*68:01; [5]) is reported as 50.9 nM.

Sequence ATTVITPMLR has a Kd (HLA-A*11:01; [6]) of 222 nM, a Kd (HLA-A*31:01; [6]) of 163 nM and a Kd (HLA-A*68:01; [6]) of 47.2 nM.

AVMYMGTLSY was tested, and the Kd (HLA-A*03:01; [2]) was 7.67 nM, the Kd (HLA-A*11:01; [2]) was 7.78 nM and the Kd (HLA-A*31:01; [2]) was 3200 nM. It also gave a Kd (HLA-A*33:01; [2]) of 10800 nM and a Kd (HLA-A*68:01; [2]) of 2580 nM.

For AVNTPVSMTY, the Kd (HLA-A*03:01; [1]) was 71.5 nM, the Kd (HLA-A*11:01; [1]) was 20.7 nM and the Kd (HLA-A*31:01; [1]) was 7440 nM. It also gave a Kd (HLA-A*33:01; [1]) of at least 70000 nM and a Kd (HLA-A*68:01; [1]) of 4660 nM.

With AVRAFLLRHY the Kd (HLA-A*03:01; [1]) was 862 nM, the Kd (HLA-A*11:01; [1]) was 1070 nM and the Kd (HLA-A*31:01; [1]) was 5240 nM. For the same sequence, the Kd (HLA-A*33:01; [1]) was at least 70000 nM and the Kd (HLA-A*68:01; [1]) was at least 29500 nM.

With CICYGSYSLY the Kd (HLA-A*03:01; [1]) was 0.434 nM, the Kd (HLA-A*11:01; [1]) was 341 nM and the Kd (HLA-A*31:01; [1]) was 4390 nM. It also gave a Kd (HLA-A*33:01; [1]) of 2040 nM and a Kd (HLA-A*68:01; [1]) of 1580 nM.

CIPSRSKMLK gave a Kd (HLA-A*03:01; [1]) of 1.09 nM, a Kd (HLA-A*11:01; [1]) of 4.27 nM and a Kd (HLA-A*31:01; [1]) of 64.5 nM. It also gave a Kd (HLA-A*33:01; [1]) of 63.2 nM and a Kd (HLA-A*68:01; [1]) of 27.9 nM.

In the case of CVFAYVGCY, the Kd (HLA-A*03:01; [2]) is reported as 19200 nM, the Kd (HLA-A*11:01; [2]) is reported as at least 27500 nM and the Kd (HLA-A*31:01; [2]) is reported as 11900 nM. For the same sequence, the Kd (HLA-A*33:01; [2]) was at least 20600 nM and the Kd (HLA-A*68:01; [2]) was 4120 nM.

Work on DAIDGEYRLR yielded a Kd (HLA-A*33:01; [3]) of 246 nM and a Kd (HLA-A*68:01; [3]) of 17.1 nM.

In the case of DFSKSTSPTR, the Kd (HLA-A*03:01; [1]) is reported as 2720 nM, the Kd (HLA-A*11:01; [1]) is reported as 4490 nM and the Kd (HLA-A*31:01; [1]) is reported as 278 nM. For the same sequence, the Kd (HLA-A*33:01; [1]) was 1040 nM and the Kd (HLA-A*68:01; [1]) was 112 nM.

Work on DISKLTNFK yielded a Kd (HLA-A*03:01; [1]) of 781 nM, a Kd (HLA-A*11:01; [1]) of 338 nM and a Kd (HLA-A*31:01; [1]) of 5480 nM. For the same sequence, the Kd (HLA-A*33:01; [1]) was 48 nM and the Kd (HLA-A*68:01; [1]) was 1.21 nM.

With DIVNEHDIKY the Kd (HLA-A*03:01; [1]) was 7030 nM, the Kd (HLA-A*11:01; [1]) was 12600 nM and the Kd (HLA-A*31:01; [1]) was at least 37200 nM. The Kd (HLA-A*33:01; [1]) was at least 46100 nM and the Kd (HLA-A*68:01; [1]) was 4610 nM.

DLTALLSCIR was tested, and the Kd (HLA-A*03:01; [1]) was 13200 nM, the Kd (HLA-A*11:01; [1]) was 1560 nM and the Kd (HLA-A*31:01; [1]) was 510 nM. It also gave a Kd (HLA-A*33:01; [1]) of 76.8 nM and a Kd (HLA-A*68:01; [1]) of 10.9 nM.

For DTMTYKCPR, the Kd (HLA-A*31:01; [7]) was 4880 nM, the Kd (HLA-A*33:01; [7]) was 6.64 nM and the Kd (HLA-A*68:01; [7]) was 67.1 nM.

DVFHLYLQY was tested, and the Kd (HLA-A*03:01; [2]) was 5470 nM, the Kd (HLA-A*11:01; [2]) was 10600 nM and the Kd (HLA-A*31:01; [2]) was 4240 nM. It also gave a Kd (HLA-A*33:01; [2]) of 5450 nM and a Kd (HLA-A*68:01; [2]) of 188 nM.

DVLEIINDK was tested, and the Kd (HLA-A*03:01; [1]) was at least 53500 nM, the Kd (HLA-A*11:01; [1]) was 4580 nM and the Kd (HLA-A*31:01; [1]) was at least 53300 nM. The Kd (HLA-A*33:01; [1]) was 719 nM and the Kd (HLA-A*68:01; [1]) was 720 nM.

DYEVDEDIFR showed a Kd (HLA-A*33:01; [8]) of 471 nM.

Sequence EDKAWLVHR has a Kd (HLA-A*33:01; [3]) of 15.6 nM.

In the case of EINEWLSSK, the Kd (HLA-A*03:01; [1]) is reported as 201 nM, the Kd (HLA-A*11:01; [1]) is reported as 170 nM and the Kd (HLA-A*31:01; [1]) is reported as 7100 nM. The Kd (HLA-A*33:01; [1]) was 18.6 nM and the Kd (HLA-A*68:01; [1]) was 3.76 nM.

In the case of ELALTDVEKR, the Kd (HLA-A*03:01; [1]) is reported as at least 68800 nM, the Kd (HLA-A*11:01; [1]) is reported as at least 69800 nM and the Kd (HLA-A*31:01; [1]) is reported as 11800 nM. For the same sequence, the Kd (HLA-A*33:01; [1]) was 16800 nM and the Kd (HLA-A*68:01; [1]) was 149 nM.

Work on ELESLSKRER yielded a Kd (HLA-A*03:01; [1]) of at least 70100 nM, a Kd (HLA-A*11:01; [1]) of 4230 nM and a Kd (HLA-A*31:01; [1]) of 3450 nM. For the same sequence, the Kd (HLA-A*33:01; [1]) was 12600 nM and the Kd (HLA-A*68:01; [1]) was 388 nM.

Sequence ELQSVLVTTY has a Kd (HLA-A*03:01; [1]) of 2000 nM, a Kd (HLA-A*11:01; [1]) of 603 nM and a Kd (HLA-A*31:01; [1]) of 16100 nM. The Kd (HLA-A*33:01; [1]) was at least 61800 nM and the Kd (HLA-A*68:01; [1]) was 1480 nM.

EMGANFRAGR gave a Kd (HLA-A*31:01; [8]) of 67.3 nM and a Kd (HLA-A*33:01; [8]) of 7.51 nM.

With ENAVWDQYK the Kd (HLA-A*03:01; [9]) was 12600 nM, the Kd (HLA-A*11:01; [9]) was 6640 nM and the Kd (HLA-A*31:01; [9]) was at least 22500 nM. For the same sequence, the Kd (HLA-A*33:01; [9]) was 958 nM and the Kd (HLA-A*68:01; [9]) was 42.9 nM.

ETTILDVDLR showed a Kd (HLA-A*68:01; [8]) of 45 nM.

For EVGSIRCVK, the Kd (HLA-A*03:01; [1]) was 543 nM, the Kd (HLA-A*11:01; [1]) was 332 nM and the Kd (HLA-A*31:01; [1]) was 5910 nM. It also gave a Kd (HLA-A*33:01; [1]) of 83 nM and a Kd (HLA-A*68:01; [1]) of 1.19 nM.

FESLFKCLSH showed a Kd (HLA-A*03:01; [10]) of 5530 nM, a Kd (HLA-A*31:01; [10]) of 608 nM and a Kd (HLA-A*33:01; [10]) of 2750 nM.

In the case of FFVFIHMVR, the Kd (HLA-A*03:01; [1]) is reported as 0.874 nM, the Kd (HLA-A*11:01; [1]) is reported as 3780 nM and the Kd (HLA-A*31:01; [1]) is reported as 1.08 nM. It also gave a Kd (HLA-A*33:01; [1]) of 0.46 nM and a Kd (HLA-A*68:01; [1]) of 0.0241 nM.

For FIKPVSDLY, the Kd (HLA-A*03:01; [1]) was 647 nM, the Kd (HLA-A*11:01; [1]) was 832 nM and the Kd (HLA-A*31:01; [1]) was 634 nM. The Kd (HLA-A*33:01; [1]) was 501 nM and the Kd (HLA-A*68:01; [1]) was 252 nM.

Work on FITKEIKNR yielded a Kd (HLA-A*03:01; [1]) of at least 78000 nM, a Kd (HLA-A*11:01; [1]) of at least 77900 nM and a Kd (HLA-A*31:01; [1]) of 3590 nM. It also gave a Kd (HLA-A*33:01; [1]) of 6040 nM and a Kd (HLA-A*68:01; [1]) of 276 nM.
